Tests used:
[1] = tested on: BFU-E (precursor cells of erythrocytes); conditions: cited from earlier work
[2] = tested on: platelet count; assay: Test for daily administration to mouse (peripheral platelet count); format: in vivo; conditions: C57B1/6N mice, subcutaneous once a day
Description: Test for Daily Administration to Mouse
Nine-week old male C57B1/6N mice as purchased from Japan Charles River Co., Ltd. were used in the experiment.
Drug solutions to be administered were prepared basically by the same procedure as in Example 1 to give drug concentrations of 5, 20 and 80 μg/mL.
The mice under test were divided into four groups, which were administered subcutaneously with the three drug solutions and a control (citrate buffer) once a day in a volume of 10 mL/kg. […] The administration was initiated at 10 a.m.
On days 5, 7 and 9 after the start of administration, five or six mice were picked up at random from each group of animals and blood samples were withdrawn through the orbital vein. The sampling of blood was timed to occur 24 h of the final administration. Separate blood samples were taken from untreated mice (five in number) to obtain the value for normal mouse. Peripheral corpuscle counts were obtained with an automatic corpuscle counter F-800(TOA MEDICAL ELECTRONICS CO., LTD.).

[3] = tested on: platelet count; assay: Test for daily administration to rabbit (platelet count); format: in vivo; conditions: rabbits, 200 μg/kg subcutaneous daily
Description: Test for Daily Administration to Rabbit
Six 12-15 week old male Japanese albino rabbits JW/CSK were used in the experiment. The animals were individually kept in aluminum rabbit bracket cages Rb-1 (350^w×500^d×350^h mm) in a vavarium in a specific pathogen-free environment under the following conditions: temperature, 24±2° C.; humidity, 50±10%; illumination, light turned on at 5:00 and turned off at 19:00; ventilation, 15 changes/hr. Each animal was supplied with 120 g of a radiation-sterilized feed for rabbits RM (purchased from Funahashi Farm) per day. The animals were also allowed to drink to tap water ad libitum from an automatic water feeder.
Human PTH(1-84) was administered in a volume of 2 mL/vial at a concentration of 200 μg/mL. A solvent was also supplied in a volume of 2 mL/vial. Both the drug and the control were stored at −135° C. until use.
PTH (200 μg/kg) was administered to the rabbits subcutaneously at the back of their neck for 13 consecutive days. The solvent was similarly administered in the same volume as the dose of a rh-PTH solution calculated from their body weight.
Blood samples (0.5 mL) were withdrawn from the rabbits through the lateral auricular vein before the administration and on days 2, 6, 9 and 13 during the administration period. […]

[4] = tested on: platelet counts; assay: Test for single-dose administration to mouse (peripheral platelet count); format: in vivo; conditions: C57B1/6N mice, single dose 10 μg/kg through the tail vein, 6 and 9 h after the administration
Description: Test for Single-dose Administration to Mouse
Nine-week old male C57B1/6N mice as purchased from Japan Charles River Co. Ltd. were used in the experiment.
Human PTH(1-84) was dissolved in a citrate buffer (pH 5; containing 0.05% of Tween 80) at final concentrations of 1, 0.2 and 0.04 ˜g/mL so as to prepare the drug solutions to be administered.
Each of the thus prepared drug solutions and a control (citrate buffer) was administered to 15 mice through the tail vein in a volume of 10 mL/kg. […] The administration was initiated at 10 a.m.
After 3, 6 and 9 hours of the administration, five mice were picked up at random from each group of animals and blood samples were withdrawn through the orbital vein. At 10 a.m. on the same day, separate blood samples were taken from untreated mice (four in number) to obtain the preadministration value. Peripheral corpuscle counts were obtained with an automatic corpuscle counter F-800 (TOA MEDICAL ELECTRONICS CO., LTD.)

[5] = tested on: CFU-GM (precursor cells of granulocytes and macrophages); conditions: cited from earlier work

B1: human PTH(1-84) (protein, UniProt P01270 32-115, looked up)
Parathyroid hormone: SVSEIQLMHNLGKHLNSMERVEWLRKKLQDVHNFVALGAPLAPRDAGSQRPRKKEDNVLVESHEKSLGEADKADVNVLTKAKSQ
modifications: Parathyroid hormone
in vitro colony formation by BFU-E [1]: interfered with
platelet count versus control ([2]; all treated groups (50, 200 and 800 μg/kg), day 7): significantly higher in platelet count than the control
platelet count versus control ([2]; groups administered 200 and 800 μg/kg, day 5): tendency to increase
platelet count relative to the initial level ([3]; day 13): substantially returned to the initial level
platelet count relative to the initial value ([3]; increase from day 2 until day 6): two to four times as great as the initial value
platelet counts versus control [4]: significant increase in platelet counts over the control
in vitro colony formation by CFU-GM [5]: interfered with

Source: patent publication US6956022B2, “Agents for preventing and treating thrombocytopenia” (Chugai Seiyaku Kabushiki Kaisha, priority 1996, dated 2005)
